This is an account of results in paper PMC3667669 (2014).

Where no end group is shown, it is not given here.

The Kd is the constant that tells how readily two partners part at equilibrium.

The target of the test is Cdc42 (Homo sapiens, UniProt P60953). Briefly: fluorescence intensity titration.
Cdc42, sequence (P60953 1-188): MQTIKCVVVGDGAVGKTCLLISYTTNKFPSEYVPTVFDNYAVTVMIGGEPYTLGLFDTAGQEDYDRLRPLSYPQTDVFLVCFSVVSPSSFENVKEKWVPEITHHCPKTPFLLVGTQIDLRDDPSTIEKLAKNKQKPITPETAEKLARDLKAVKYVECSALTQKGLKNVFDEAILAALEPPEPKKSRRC

B1: WASP CBD (Cdc42 binding domain) (protein)
chain: KKKISKADIGAPSGFKHVSHVGWDPQNGFDVNNLDPDLRSLFSRAGISEAQLTDAETSK
modifications: also: MBP fusion, mero87 dye label, site not given here
The molecule B1 came in with a Kd of 186 nM.

B2: WASP CBD (Cdc42 binding domain) (protein)
chain: KKKISKADIGAPSGFKHVSHVGWDPQNGFDVNNLDPDLRSLFSRAGISEAQLTDAETSK
modifications: also: MBP fusion, mero61 dye label, site not given here
Consider B2, for which the Kd worked out at 144 nM.
